Values quoted from earlier work, collected in publication PMC6764118.

Target: Lys199 (UniProt position 223, AKQRLKCASLQ)
Assay: chemical modification

Human serum albumin (HSA) (Homo sapiens)
pKa: ∼8
